Assay results reported in US20250019429A1 (Janssen / Centocor, published 2025).

B1: TNV148 (antibody, human IgG1, kappa, V domains shown)
VH: QVQLVESGGGVVQPGRSLRLSCAASGFIFSSYAMHWVRQAPGNGLEWVAFMSYDGSNKKYADSVKGRFTISRDNPKNTLYLQMNSLRAEDTAVYYCARDRGIAAGGNYYYYGMDVWGQGTTVTVSS
VL: EIVLTQSPATLSLSPGERATLSCRASQSVYSYLAWYQQKPGQAPRLLIYDASNRATGIPARFSGSGSGTDFTLTISSLEPEDFAVYYCQQRSNWPPFTFGPGTKVDIKR
notes: Hybridoma-derived fully human IgG1 kappa; also called GenTNV148.26.12; C420A
B2: TNV86 (antibody, human IgG1, kappa, V domains shown)
VH: B1 VH
VL: B1 VL
notes: also called GenTNV86.14.34; C417A

Legend:
recombinant human TNFα [1] = target: T1, recombinant human TNFα (human, UniProt P01375 77-233); test: cell-based or functional assay
recombinant human TNFα [2] = target: T1, recombinant human TNFα; test: inhibition of 125I-TNFα binding to plate-coated p55-sf2 by hybridoma supernatant
Protocol: (§1) Assay for Inhibition of TNF Binding to Receptor. […] 50:1 of p55-sf2 at 0.5: g/ml in PBS was added to Optiplates to coat the wells during a one-hour incubation at 37° C. Serial dilutions of the eight TNV cell supernatants were prepared in 96-well round-bottom plates using PBS/0.1% BSA as diluent. […] The mixture was preincubated for one hour at RT. […] After 2 hrs at RT, Optiplates were washed three times with PBS-Tween. […] of Microscint-20 was added and the cpm bound determined using the TopCount gamma counter.

recombinant human TNFα [3] = target: T1, recombinant human TNFα; test: competition: mAb in hybridoma supernatant preincubated with 125I-TNFα (5 ng/ml), then 125I-TNFα bound to plate-coated p55-sf2 counted as cpm
Protocol: Although eight TNV mAb samples were tested in these experiments, for simplicity three of the mAbs that were shown by DNA sequence analyses to be identical to one of the other TNV mAbs (see Section 5.2.2) are not shown here. Each sample was tested in duplicate. The results shown are representative of two independent experiments.
as §1

Binder | neutralizing TNFα bioactivity (recombinant human TNFα [1]) | fold better at blocking TNF binding, against TNV118 and TNV14 (recombinant human TNFα [2]) | IC50 (read off the curve) (recombinant human TNFα [3])
B1 | 4 fold (against TNV14) | ~4 fold | ~4 ng/mL
B2 |  | ~4 fold | 
